Assay [1] has as its target human BCMA (on cells) (human) (UniProt Q02223). Kind of assay: FACS on human BCMA-CHOK1 cells.
The target in assay [2] is human GPRC5D (human) (UniProt Q9NZD1). The assay can be described thus: FACS on NCI-H929 cells (GPRC5D-expressing).
Assay [3] addresses cynomolgus monkey GPRC5D (cynomolgus monkey). Kind of assay: FACS on cynomolgus GPRC5D-CHOK1 cells.
Assay [4] concerns the target cynomolgus monkey BCMA (on cells) (cynomolgus monkey). The assay can be described thus: FACS on cynomolgus BCMA-CHOK1 cells.
In assay [5] the target is human BCMA (on cells) (human) (UniProt Q02223). Kind of assay: FACS on human BCMA-CHOK1 cells. This is another data set of the same source.
Assay [6] addresses human GPRC5D (human) (UniProt Q9NZD1). The assay can be described thus: FACS on human GPRC5D-CHOK1 cells.
Assay [7] deals with cynomolgus monkey BCMA (on cells) (cynomolgus monkey). The assay can be described thus: FACS on cynomolgus BCMA-CHOK1 cells. The source holds these as a separate data set.
For assay [8], the target named is cynomolgus monkey GPRC5D (cynomolgus monkey). The assay can be described thus: FACS on cynomolgus GPRC5D-CHOK1 cells. This is another data set of the same source.
The target in assay [9] is human CD3 (on Jurkat cells and human PBMCs) (human) (UniProt P07766). Kind of assay: FACS on Jurkat cells.
Assay [10] deals with cynomolgus monkey CD3 (on cyno PBMCs) (cynomolgus monkey) (UniProt Q95LI5). The assay can be described thus: FACS on cyno PBMCs.
In assay [11] the target is human BCMA (on cells) (human) (UniProt Q02223). The assay can be described thus: FACS on RPMI8226 cells (express BCMA and GPRC5D).
Assay [12] has as its target human CD3 (on Jurkat cells and human PBMCs) (human) (UniProt P07766). Kind of assay: FACS on human PBMCs.
Another assay has as its target soluble BCMA. The assay can be described thus: cell-based or functional assay.
For assay [13], the target named is human BCMA (on cells) (human) (UniProt Q02223). Kind of assay: FACS on NCI-H929 cells (express BCMA and GPRC5D).
The target in assay [14] is RPMI8226 tumor cells expressing the dual targets BCMA and GPRC5D. The assay can be described thus: FACS on RPMI8226 cells (express BCMA and GPRC5D).
Assay [15] concerns the target NCI-H929 tumor cells expressing the dual targets BCMA and GPRC5D. Kind of assay: FACS on NCI-H929 cells (express BCMA and GPRC5D).

The results in this text go back to patent publication US20260234241A1.

Where two headings read alike, the source gives them in different places.

Chain of human BCMA (on cells) (human) (Q02223 whole entry): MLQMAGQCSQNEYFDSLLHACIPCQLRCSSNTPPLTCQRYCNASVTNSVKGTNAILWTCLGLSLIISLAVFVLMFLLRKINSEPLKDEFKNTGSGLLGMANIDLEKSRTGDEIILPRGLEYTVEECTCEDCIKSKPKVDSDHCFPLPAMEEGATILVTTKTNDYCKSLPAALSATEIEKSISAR
Chain of human CD3 (on Jurkat cells and human PBMCs) (human) (P07766 23-207): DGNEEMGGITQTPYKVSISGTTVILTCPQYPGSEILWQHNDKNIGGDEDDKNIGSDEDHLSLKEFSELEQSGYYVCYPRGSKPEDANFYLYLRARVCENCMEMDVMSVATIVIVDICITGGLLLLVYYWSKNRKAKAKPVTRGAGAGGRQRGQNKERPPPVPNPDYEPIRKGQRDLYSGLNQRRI
Chain of cynomolgus monkey BCMA (on cells) (cynomolgus monkey) (Q02223 other isoform, or with tags, fused parts or gaps): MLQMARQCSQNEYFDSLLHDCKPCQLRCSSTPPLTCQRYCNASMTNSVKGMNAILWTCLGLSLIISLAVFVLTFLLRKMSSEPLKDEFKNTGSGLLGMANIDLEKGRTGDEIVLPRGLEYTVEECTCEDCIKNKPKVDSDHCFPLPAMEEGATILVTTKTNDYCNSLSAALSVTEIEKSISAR
Chain of human GPRC5D (human) (Q9NZD1 whole entry): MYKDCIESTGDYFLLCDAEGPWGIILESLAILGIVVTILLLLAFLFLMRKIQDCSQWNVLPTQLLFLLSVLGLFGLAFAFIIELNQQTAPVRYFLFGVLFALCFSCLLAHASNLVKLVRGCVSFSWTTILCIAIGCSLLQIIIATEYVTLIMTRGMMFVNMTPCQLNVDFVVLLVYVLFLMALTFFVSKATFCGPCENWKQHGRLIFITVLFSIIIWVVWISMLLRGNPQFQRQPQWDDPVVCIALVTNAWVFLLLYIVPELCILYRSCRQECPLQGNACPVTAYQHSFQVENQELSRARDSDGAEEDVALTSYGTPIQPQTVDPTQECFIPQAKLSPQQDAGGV
Chain of cynomolgus monkey GPRC5D (cynomolgus monkey) (Q9NZD1 other isoform, or with tags, fused parts or gaps): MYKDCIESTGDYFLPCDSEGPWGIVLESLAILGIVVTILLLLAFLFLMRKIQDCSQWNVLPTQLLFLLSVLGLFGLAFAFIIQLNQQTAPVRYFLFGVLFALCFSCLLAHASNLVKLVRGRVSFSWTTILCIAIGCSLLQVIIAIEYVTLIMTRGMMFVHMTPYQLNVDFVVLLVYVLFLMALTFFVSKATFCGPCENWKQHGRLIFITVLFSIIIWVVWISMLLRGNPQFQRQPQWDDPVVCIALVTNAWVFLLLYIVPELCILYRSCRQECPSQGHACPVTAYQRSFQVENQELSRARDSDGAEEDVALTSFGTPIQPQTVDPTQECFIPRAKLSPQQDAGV
Chain of cynomolgus monkey CD3 (on cyno PBMCs) (cynomolgus monkey) (Q95LI5 22-198): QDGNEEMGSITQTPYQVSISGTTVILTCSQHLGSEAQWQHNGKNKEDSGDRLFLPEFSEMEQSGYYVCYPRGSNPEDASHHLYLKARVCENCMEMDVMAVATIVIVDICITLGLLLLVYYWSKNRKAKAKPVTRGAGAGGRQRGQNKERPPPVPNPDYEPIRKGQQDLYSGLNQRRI

IgG1 AA (antibody): the Top MFI in assay [1] amounted to 232; with human GPRC5D (human) [2], 178; in [3], 85; in assay [4], 82.6; in assay [5], 89.1; with human GPRC5D (human) [6], 36. Besides, the Top MFI in assay [7] is 382; in assay [8] it was 1840.

In the case of “Teclistamab analogue (BCMA/CD3) (bispecific antibody)”, the Top MFI in assay [9] is 825; in assay [10], 2060; in assay [11], 169; in [12], 672; in assay [4], 1770; in [5], 2280. Besides, the Top MFI in assay [13] stood at 669; with human GPRC5D (human) [6] it was 160. Besides, in the assay with soluble BCMA, the Fold change of TDCC EC50 on NCI-H929 cells in the presence of 2500 ng/ml soluble BCMA stood at 25 fold. Besides, the Ratio (EC50) of TDCC on NCI-H929 cells, 2.5 ug/ml against 0 ug/ml soluble BCMA in the assay with soluble BCMA is 21 fold. Further, the fold change of the TDCC EC50 on NCI-H929 cells in the presence of 2500 ng/ml soluble BCMA with soluble BCMA turned out to be 25 fold.

On to hIgG1 LALA isotype (antibody), for which the Top MFI in [9] was found to be 77.6; in assay [10] it was 93.3; in [14] it was 112; in [12], 96.1; in [5] it was 119; in assay [15], 104. Besides, in the assay with human GPRC5D (human) [6], the Top MFI was 100.
